Experiment: label from the status in PepcDB records
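Also: failed if final PepcDB status was selected cloned or expressed and not failed if soluble or beyond.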

Sequence | protein production
MFIGIYNRSVIVTYMGIASAMVGMYLADKHDIRYAILCLVIAGVCDLFDGKIARMCKRTEDEKLFGIQLDSLADVICFSALPISIFYGLGLNKWYHVVIYTAFTLAAITRLGFFNIKVMDSNRDKPVDYYSGLPVTCSAMIFPLFWLLSFCLDRHIFLLIYTIIIAVVAFLFVANIKIKKPKGIAYGVFVVLAVLMSLGIIFIGV | failed
ELHAELVKRQHLETFLKTQIESELVDVYFQPIIETRTGNVVKFEALARFYHENSEYSTQEMISIIEDLELIAALDDVVCQTALKQWSHLQKIYGENIGLSINRSLNTKLDSLQVLQRSLDLIKASDVNPKLVTIELTETAYFEQDEEHAFALEQIRQEGIQIAIDDFGTGYSSFSYLEEGQFDVLKIDRKFVKNIHEGSTSYNIVKTITDLAHKLNVEVVAEGVESQRELEVLAGIGVDYMQGFLFSQA | failed
MSFALGQRWISDTESDLGLGTVVALDARTVTLMFAASEENRVYARSDAPVTRVIFNVGDVVDSQQGWSLQVEQVVEDQGVYTYLGTRVDTEESGVALREIFLSNQIRFNKPQDKLFAGQIDRMDNFVLRY | not failed
MSVKSVLVFLSVSGSTMPMLILESDSIAEVKLRIQTCNGFRVRRQKLVFSGRELARNASRVKDYGVTGGSVLHLVLKLYDP | failed
MNEDGNDTPRPLGEVPEFRRIRSGPLPPHQNIPPRRRAPADQLPWLPSAAARRRRAALLLCGFLSAVVLLVSGSSWAVTGWLSDQLHRYDVFTGLLDENRPPASQGALNFLVIGSDDRSGLDSRQRSELGVGNVEGRRSDTMMLVHLNHQREHITVVGIPRDSWVRIPGHGPDKINAAYSLGGPQLAVQTVEAATGVRIDHYVEIDFTGFVEVVDTLGGITVCLPEAIHDEKAHLSLEAGTHRLQGTQALAFARTRKSPHGDLDRIDRQQQVLAALLDEALNAQILSDPARLAQFVETALGSITVDDTLDTAALIQLGTQLRSLGLDDVTFTQVPVDRIDFWTPSGEVAVTWHEQHATELFTAIAADRPIPQPQSAEDSALPSPDEVTVEVYNGTTIPGLGAQVRVELLESGFQVPESAGNWPQQDLAETLVRYSPEREDAATLLVESIPGARAEVDPGLGGRVQVIAGVNHTGVAVPAHAASPIAEQPVDVGGRETVHTRTAAENVCR | failed
MVGNKVKSFMLPIISYAVPTFVLVYPSFFVSWLSESMHLAYWEVFAIVALPFLGRIIGSFIYQVFKNSVISYCFPFLGFLVILQNFLGALIFVRFLVGVIFGLLTSYAVESAVKSGRNVLVGFTTAGWPIGWVISYVAYVLLKNWNVINISGILIMLLALFELNGKEFGERSKISVSFPRLTSILIYVSALTPAFILQVMPSFLEVIKLTWLILPSYLLSIPTYVLLPIISEKVGIRKVLVISSIIVILSCVITFLLLPMMVIVFTSIGLGILGITPKYLAIRGEDPKRMGLALNIGSVMGLILPVVYGLMPFSSEFLLSILMVLMILI | failed
MQYLIVKYSHQIFVTITILVFNIRFFLLWKNPEKPLVGFWKALPHLNDTMLLFTGLWLMKITHFSPFNAPWLGTKILLLFAYIALGMVMMRARPRSTKFYTVYLLAMCCIACIVYLAKTKVLPF | failed
MCNGKVVNKGDDCQSLTFRRRSGWAMIDRSAVMEKTMDSRIQDVLDIYHAMIETEHNSPRELPPGGRDGGQDQRLRAVGQATGQFINILAKSLKSPTILELGTSFGYSGIWLAEAARASGGRLITMEMHDYKSAYARDMAVKAGLAEHVEFKVGDAVQMIGALSSGIDFVLVDLWKDLYVPCLEAFYPKLNPGAIIVADNMLRPGGDDLKRYSDAVRAKPWISSVLLPVGSGLEVSRFD | failed
MKTLVDHLSQYANYHRDPRNIATHFVGIPMIVLAVTILLSRPGWEIAGMWLSPALLAAAASVWFYLRLDLRFGLVMGLLLGLCLWVGEALAVQSTTLWLGAGLGAFVVGWIIQFIGHYYEGRKPAFVDDVSGLIIGPLFVVAEAAFMLGLCPTLKRAVEANAGPIAMRQKKASV | failed
MEIAPSTSRFKLYDQFELLEFPDKYVVKPIESPEEGFSVNRRDGNIKPLDENASSGSPTRVSTIYGVGGTIRLLAGTYLLVITSREEVGNFLGLPIFRVTAMKFLPCNEALRFATAQEKKDETYFRTLLQALETTPGLYFSYETDLTLNLQRRCKLAEGWNRKPMWKQADPRYVWNWHLLEDLIECKLDGFIIPILQGSYQVAELKLKNSPAVVSIMSRRCTRRLGTRMWRRGANLEGDAANFVESEQIVEINGFKFSLLQVRGSIPLLWEQIVDLSYKPRLKINKHEETPKVVQRHFHDLCQRYGEIMAVDLTDQHGDEGALSKAYATEMEKLPDVRYVSFDFHQVCGTTNFDNLGVLYEQIGDEFEKQGYFLVDADENILEEQKGVIRSNCIDCLDRTNVTQSFMGQKSLNLQLQRIGVCDSTECISTFEDDYTKFRTIWAEQGDEVSLQYAGTYALKGDLVRYGKQTMTGAIKDGLSAMSRYYLNNFQDGVRQDALDLISGRYTVGTHSPSQLQPIGSQPSFLPVASALLIGGVTVTSFTIHQAGRNTQQYLASALWAGVTAGVVAMIKANGRHLTSRPRLCHLI | failed
MDLLQFLIDKNNVFIVAVAVVSGIMLMLPALRKGRAGAAVGTSEAIQMVNQRQAVWVDVRPTEQFQAGHIAQARSLPAADLEKKAGALPKNKPLIVVCEQGRDAARIAARLRSQGFAEVSVLEGGMRAWFAAGLPVTQKG | failed
MDTAVVYYVLATALVLIGLAGVILPALPGLPLVFAGLLVAAWADNFTHIGWVTLVVLGLITALSYLVDFLATLYGAQRVGASKMALWGSVIGGIAGIFFMPIGLFIGPFAGAWLGEYYQTRKSGQATKVGIGTWVGIMLGTATKLALGLCMLGAFAIGWFF | failed
MNSNDQPGLDLLGDPIVLTQRLVDIPSPSGQEKQIADEIEDALRNLNLPGVEVFRFNNNVLARTNRGLASRVMLAGHIDTVPIADNLPSRVEDGIMYGCGTVDMKSGLAVYLHTFATLATSTELKHDLTLIAYECEEVADHLNGLGHIRDEHPEWLAADLALLGEPTGGWIEAGCQGNLRIKVTAHGVRAHSARSWLGDNAMHKLSPIISKVAAYKAAEVNIDGLTYREGLNIVFCESGVANNVIPDLAWMNLNFRFAPNRDLNEAIEHVVETLELDGQDGIEWAVEDGAGGALPGLGQQVTSGLIDAVGREKIRAKFGWTDVSRFSAMGIPALNFGAGDPSFAHKRDEQCPVEQITDVAAILKQYLSE | not failed
STTTTTKKPHVLVIPFPQSGHMVPHLDLTHQILLRGATVTVLVTPKNSSYLDALRSLHSPEHFKTLILPFPSHPCIPSGVESLQQLPLEAIVHMFDALSRLHDPLVDFLSRQPPSDLPDAILGSSFLSPWINKVADAFSIKSISFLPINAHSISVMWAQEDRSFFNDLETATTESYGLVINSFYDLEPEFVETVKTRFLNHHRIWTVGPLLPFKAGVDRGGQSSIPPAKVSAWLDSCPEDNSVVYVGFGSQIRLTAEQTAALAAALEKSSVRFIWAVRDAAKKVNSSDNSVEEDVIPAGFEERVKEKGLVIRGWAPQTMILEHRAVGSYLTHLGWGSVLEGMVGGVMLLAWPMQADHFFNTTLIVDKLRAAVRVGENRDSVPDSDKLARILAESAREDLPERVTLMKLREKAMEAIKEGGSSYKNLDELVAEMCL | failed
QIGVPPSGPMDDLSFRLGNTALGNPEGAPGLEFTMAGPALRFTHATTVCVTGADVTVTVNGNTANTWEPITVPENGLLDVGSADGSGLRGYILFEGGLDVPRYLGSASTFTLGQFGGHGGRVLRTSDVLRTVSDHLPETVPGVVPEESRPALTSDWELKVVEGPHGAPEFFEREDIEELYAAEYEVHFNSARTGVRLIGPKPRWARNDGGEAGLHPSNIHDTAYSVGALDFTGDTPILLGPDGPSLGGFVCPVTVVTGERWKLGQLRPGDKVRFVPIRSVEAPSVKELGAAR | failed

Source: a protein production outcome set (Wang et al. 2014)
